Measured values published in paper PMC12311180, “Structure and mechanism of the RalGAP tumor suppressor complex” (Nature Communications, 2025).

Tests used:
[1] = biological target: the molecule itself; test: cryo-EM structure; RGα2/RGβ/κB-Ras2 complex from Expi293F, FLAG affinity and Superose 6 in 20 mM HEPES pH 7.5, 150 mM NaCl, 2 mM MgCl2, 1 mM TCEP; single particle analysis of the half-particle, 3.8 Å overall
[2] = biological target: T1, RalGAPα2 (RGα2), full length, co-expressed in Expi293F and purified by FLAG affinity (UniProt Q2PPJ7 1-1873); test: as above; details: both partners purified
T1 construct: RalGAPα2, catalytic α-subunit of the RalGAP2 complex; catalytic asparagine N1742; residues 1-73 not resolved in the map; residue numbers (N1742, R1738, N943) are used together with human patient variants; also called RGα2^fl; source: Expi293F cells, transfected, purified (M2 anti-FLAG beads, 3xFLAG peptide elution; Superose 6 for cryo-EM)
T1 sequence (Q2PPJ7 whole entry, the tested form may be a part): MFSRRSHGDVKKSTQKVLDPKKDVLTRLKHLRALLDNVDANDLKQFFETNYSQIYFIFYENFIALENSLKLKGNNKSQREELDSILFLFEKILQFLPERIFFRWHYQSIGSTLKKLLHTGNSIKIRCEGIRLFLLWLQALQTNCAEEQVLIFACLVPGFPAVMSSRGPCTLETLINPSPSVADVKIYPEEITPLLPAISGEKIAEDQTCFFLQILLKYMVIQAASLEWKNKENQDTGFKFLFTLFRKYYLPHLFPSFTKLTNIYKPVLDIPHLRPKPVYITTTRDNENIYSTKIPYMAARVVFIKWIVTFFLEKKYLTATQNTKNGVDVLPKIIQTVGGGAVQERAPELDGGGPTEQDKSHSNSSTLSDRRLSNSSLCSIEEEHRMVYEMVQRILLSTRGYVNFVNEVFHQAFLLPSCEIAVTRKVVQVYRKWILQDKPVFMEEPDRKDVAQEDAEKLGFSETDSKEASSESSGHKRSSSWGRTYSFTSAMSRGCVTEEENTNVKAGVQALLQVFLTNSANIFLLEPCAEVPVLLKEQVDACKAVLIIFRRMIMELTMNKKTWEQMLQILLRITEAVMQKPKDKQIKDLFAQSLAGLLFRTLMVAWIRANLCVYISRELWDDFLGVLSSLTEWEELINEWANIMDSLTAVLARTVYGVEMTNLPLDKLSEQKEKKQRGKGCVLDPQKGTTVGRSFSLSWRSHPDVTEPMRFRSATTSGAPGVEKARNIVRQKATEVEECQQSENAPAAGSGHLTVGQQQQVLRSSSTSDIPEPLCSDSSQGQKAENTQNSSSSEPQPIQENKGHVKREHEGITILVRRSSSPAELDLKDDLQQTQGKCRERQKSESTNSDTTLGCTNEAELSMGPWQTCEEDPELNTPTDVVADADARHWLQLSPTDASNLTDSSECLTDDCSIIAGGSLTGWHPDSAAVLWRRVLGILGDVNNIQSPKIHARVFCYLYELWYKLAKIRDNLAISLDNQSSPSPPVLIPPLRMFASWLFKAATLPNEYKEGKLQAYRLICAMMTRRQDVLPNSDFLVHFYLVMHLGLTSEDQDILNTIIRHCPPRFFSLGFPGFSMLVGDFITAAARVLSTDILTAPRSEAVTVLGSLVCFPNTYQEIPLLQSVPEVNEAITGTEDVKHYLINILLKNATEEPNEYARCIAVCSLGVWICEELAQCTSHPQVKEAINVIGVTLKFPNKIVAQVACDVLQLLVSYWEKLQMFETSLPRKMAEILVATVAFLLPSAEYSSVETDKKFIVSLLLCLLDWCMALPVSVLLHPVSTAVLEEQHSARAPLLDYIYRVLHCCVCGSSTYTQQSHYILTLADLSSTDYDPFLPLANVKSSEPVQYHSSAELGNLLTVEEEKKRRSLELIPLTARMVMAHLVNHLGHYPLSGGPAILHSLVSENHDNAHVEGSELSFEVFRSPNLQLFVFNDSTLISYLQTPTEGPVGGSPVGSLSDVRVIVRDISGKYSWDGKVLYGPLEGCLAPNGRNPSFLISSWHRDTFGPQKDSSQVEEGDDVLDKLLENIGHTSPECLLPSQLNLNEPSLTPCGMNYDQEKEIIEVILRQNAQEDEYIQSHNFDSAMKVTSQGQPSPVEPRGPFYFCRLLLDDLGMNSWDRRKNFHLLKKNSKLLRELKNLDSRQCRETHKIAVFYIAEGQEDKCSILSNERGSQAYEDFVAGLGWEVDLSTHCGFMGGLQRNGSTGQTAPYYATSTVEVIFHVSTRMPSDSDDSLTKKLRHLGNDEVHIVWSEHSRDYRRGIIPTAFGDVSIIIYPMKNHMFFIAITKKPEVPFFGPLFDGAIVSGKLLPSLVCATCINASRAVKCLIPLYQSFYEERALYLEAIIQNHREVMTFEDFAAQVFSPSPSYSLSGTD

binding result [2]: binds
B1: RalGAPβ (RGβ), full length, co-expressed in Expi293F and co-purified with FLAG-RGα2 (natural protein, UniProt Q86X10 1-1494, looked up)
chain: MYSEWRSLHLVIQNDQGHTSVLHSYPESVGREVANAVVRPLGQVLGTPSVAGSENLLKTDKEVKWTMEVICYGLTLPLDGETVKYCVDVYTDWIMALVLPKDSIPLPVIKEPNQYVQTILKHLQNLFVPRQEQGSSQIRLCLQVLRAIQKLARESSLMARETWEVLLLFLLQINDILLAPPTVQGGIAENLAEKLIGVLFEVWLLACTRCFPTPPYWKTAKEMVANWRHHPAVVEQWSKVICALTSRLLRFTYGPSFPAFKVPDEDASLIPPEMDNECVAQTWFRFLHMLSNPVDLSNPAIISSTPKFQEQFLNVSGMPQELNQYPCLKHLPQIFFRAMRGISCLVDAFLGISRPRSDSAPPTPVNRLSMPQSAAVSTTPPHNRRHRAVTVNKATMKTSTVSTAHASKVQHQTSSTSPLSSPNQTSSEPRPLPAPRRPKVNSILNLFGSWLFDAAFVHCKLHNGINRDSSMTAITTQASMEFRRKGSQMSTDTMVSNPMFDASEFPDNYEAGRAEACGTLCRIFCSKKTGEEILPAYLSRFYMLLIQGLQINDYVCHPVLASVILNSPPLFCCDLKGIDVVVPYFISALETILPDRELSKFKSYVNPTELRRSSINILLSLLPLPHHFGTVKSEVVLEGKFSNDDSSSYDKPITFLSLKLRLVNILIGALQTETDPNNTQMILGAMLNIVQDSALLEAIGCQMEMGGGENNLKSHSRTNSGISSASGGSTEPTTPDSERPAQALLRDYALNTDSAAGLLIRSIHLVTQRLNSQWRQDMSISLAALELLSGLAKVKVMVDSGDRKRAISSVCTYIVYQCSRPAPLHSRDLHSMIVAAFQCLCVWLTEHPDMLDEKDCLKEVLEIVELGISGSKSKNNEQEVKYKGDKEPNPASMRVKDAAEATLTCIMQLLGAFPSPSGPASPCSLVNETTLIKYSRLPTINKHSFRYFVLDNSVILAMLEQPLGNEQNDFFPSVTVLVRGMSGRLAWAQQLCLLPRGAKANQKLFVPEPRPVPKNDVGFKYSVKHRPFPEEVDKIPFVKADLSIPDLHEIVTEELEERHEKLRSGMAQQIAYEIHLEQQSEEELQKRSFPDPVTDCKPPPPAQEFQTARLFLSHFGFLSLEALKEPANSRLPPHLIALDSTIPGFFDDIGYLDLLPCRPFDTVFIFYMKPGQKTNQEILKNVESSRTVQPHFLEFLLSLGWSVDVGRHPGWTGHVSTSWSINCCDDGEGSQQEVISSEDIGASIFNGQKKVLYYADALTEIAFVVPSPVESLTDSLESNISDQDSDSNMDLMPGILKQPSLTLELFPNHTDNLNSSQRLSPSSRMRKLPQGRPVPPLGPETRVSVVWVERYDDIENFPLSELMTEISTGVETTANSSTSLRSTTLEKEVPVIFIHPLNTGLFRIKIQGATGKFNMVIPLVDGMIVSRRALGFLVRQTVINICRRKRLESDSYSPPHVRRKQKITDIVNKYRNKQLEPEFYTSLFQEVGLKNCSS
notes: RalGAPβ, common regulatory β-subunit of the RalGAP complexes; In the RalGAP tetramer two RGα2/RGβ heterodimers are joined by two RGβ; also called RGβ^fl; RGβ^WT; source: Expi293F cells, transfected, co-purified with RGα2 (M2 anti-FLAG beads; Superose 6 for cryo-EM)
binding result [1]: binds
